Test results as given in PMC12394548 (Nature Communications, 2025).
One block for each binder: values may come before it.

Assays:
Settings in all cases: both partners purified
[1] = target: T1, valosin-containing protein (VCP)/p97 (UniProt P55072 1-806, terbium chelate (CoraFluor), non-site-selective labelling, DOL 0.33, in the TR-FRET assays only); test: FRET or BRET; TR-FRET displacement assay: 10 nM BODIPY-VCPIP1 WT pre-incubated with 10 nM Tb-VCP, serial dilution of unlabelled VCPIP1 WT or p47; TR-FRET buffer, room temperature
T1 construct: VCP/p97, full length; One molecule for the unlabelled protein (cryo-EM, DUB assay) and the Tb-labelled protein (TR-FRET); Hexamer seen by cryo-EM; also called Tb-VCP; terbium-chelate labeled VCP; source: co-expressed with VCPIP1 for cryo-EM data set 1 (ion exchange omitted)

[2] = target: T1, valosin-containing protein (VCP)/p97; test: FRET or BRET; TR-FRET binding assay: Tb-VCP with a serial dilution of BODIPY-labelled VCPIP1 construct; 25 mM HEPES pH 7.4, 150 mM NaCl, 0.1% BSA, 0.05% Tween-20; 1 h at room temperature; apparent KD
[3] = target: T1, valosin-containing protein (VCP)/p97; test: FRET or BRET; TR-FRET binding assay of BODIPY-VCPIP1 WT on Tb-VCP with 1 uM ATP; apparent KD
[4] = target: T1, valosin-containing protein (VCP)/p97; test: FRET or BRET; TR-FRET binding assay of BODIPY-VCPIP1 WT on Tb-VCP with 1 uM ADP; apparent KD
[5] = target: T1, valosin-containing protein (VCP)/p97; test: FRET or BRET; TR-FRET binding assay of BODIPY-VCPIP1 WT on Tb-VCP with 1 uM ATPγS; apparent KD
[6] = target: T1, valosin-containing protein (VCP)/p97; test: FRET or BRET; TR-FRET binding assay of BODIPY-VCPIP1 WT on Tb-VCP, buffer control (no nucleotide added); apparent KD; another protein batch than a3
[7] = target: T1, valosin-containing protein (VCP)/p97; test: FRET or BRET; TR-FRET binding assay of BODIPY-VCPIP1 WT on Tb-VCP with 1 uM AMP; apparent KD

T1 sequence (P55072 whole entry): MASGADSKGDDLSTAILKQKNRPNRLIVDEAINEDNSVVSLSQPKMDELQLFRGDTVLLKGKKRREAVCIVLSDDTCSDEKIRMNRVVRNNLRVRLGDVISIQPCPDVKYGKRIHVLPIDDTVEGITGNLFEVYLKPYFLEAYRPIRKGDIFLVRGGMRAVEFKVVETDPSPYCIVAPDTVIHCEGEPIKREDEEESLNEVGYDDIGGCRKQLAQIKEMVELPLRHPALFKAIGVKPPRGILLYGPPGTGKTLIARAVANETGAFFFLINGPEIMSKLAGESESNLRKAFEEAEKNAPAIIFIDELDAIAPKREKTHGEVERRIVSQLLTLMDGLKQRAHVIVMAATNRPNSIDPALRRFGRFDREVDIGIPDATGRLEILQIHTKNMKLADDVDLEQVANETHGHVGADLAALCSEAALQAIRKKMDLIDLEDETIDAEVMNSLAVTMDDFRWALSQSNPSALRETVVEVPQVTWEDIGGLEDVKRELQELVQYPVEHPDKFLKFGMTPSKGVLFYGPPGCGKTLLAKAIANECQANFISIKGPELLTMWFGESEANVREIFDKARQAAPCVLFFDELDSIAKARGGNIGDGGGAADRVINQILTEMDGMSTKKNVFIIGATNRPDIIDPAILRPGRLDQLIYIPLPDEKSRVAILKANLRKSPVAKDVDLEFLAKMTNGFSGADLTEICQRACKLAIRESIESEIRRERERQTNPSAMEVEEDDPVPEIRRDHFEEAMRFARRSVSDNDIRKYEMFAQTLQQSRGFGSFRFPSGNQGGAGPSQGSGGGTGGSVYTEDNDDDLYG

IC50 [1]: 20.4 nM
B1: p47 (natural protein)
chain: MAAERQEALREFVAVTGAEEDRARFFLESAGWDLQIALASFYEDGGDEDIVTISQATPSSVSRGTAPSDNRVTSFRDLIHDQDEDEEEEEGQRFYAGGSERSGQQIVGPPRKKSPNELVDDLFKGAKEHGAVAVERVTKSPGETSKPRPFAGGGYRLGAAPEEESAYVAGEKRQHSSQDVHVVLKLWKSGFSLDNGELRSYQDPSNAQFLESIRRGEVPAELRRLAHGGQVNLDMEDHRDEDFVKPKGAFKAFTGEGQKLGSTAPQVLSTSSPAQQAENEAKASSSILIDESEPTTNIQIRLADGGRLVQKFNHSHRISDIRLFIVDARPAMAATSFILMTTFPNKELADESQTLKEANLLNAVIVQRLT
notes: p47 cloned into pNIC-Bio2 with an N-terminal His-6-TEV tag; printed residue numbers reach V366 (UBX domain); Used unlabelled in the displacement assay and in cryo-EM; also called adapter protein p47; source: E. coli LOBSTR, purified (Ni resin, ion exchange, SEC)

B2: VCPIP1^ΔVCPID (aa Δ589-666) (enzyme, UniProt Q96JH7 1-1222, looked up)
chain: MSQPPPPPPPLPPPPPPPEAPQTPSSLASAAASGGLLKRRDRRILSGSCPDPKCQARLFFPASGSVSIECTECGQRHEQQQLLGVEEVTDPDVVLHNLLRNALLGVTGAPKKNTELVKVMGLSNYHCKLLSPILARYGMDKQTGRAKLLRDMNQGELFDCALLGDRAFLIEPEHVNTVGYGKDRSGSLLYLHDTLEDIKRANKSQECLIPVHVDGDGHCLVHAVSRALVGRELFWHALRENLKQHFQQHLARYQALFHDFIDAAEWEDIINECDPLFVPPEGVPLGLRNIHIFGLANVLHRPIILLDSLSGMRSSGDYSATFLPGLIPAEKCTGKDGHLNKPICIAWSSSGRNHYIPLVGIKGAALPKLPMNLLPKAWGVPQDLIKKYIKLEEDGGCVIGGDRSLQDKYLLRLVAAMEEVFMDKHGIHPSLVADVHQYFYRRTGVIGVQPEEVTAAAKKAVMDNRLHKCLLCGALSELHVPPEWLAPGGKLYNLAKSTHGQLRTDKNYSFPLNNLVCSYDSVKDVLVPDYGMSNLTACNWCHGTSVRKVRGDGSIVYLDGDRTNSRSTGGKCGCGFKHFWDGKEYDNLNIDGAHAQRVGDVQGQESESQLPTKIILTGQKTKTLHKEELNMSKTERTIQQNITEQASVMQKRKTEKLKQEQKGQPRTVSPSTIRDGPSSAPATPTKAPYSPTTSKEKKIRITTNDGRQSMVTLKSSTTFFELQESIAREFNIPPYLQCIRYGFPPKELMPPQAGMEKEPVPLQHGDRITIEILKSKAEGGQSAAAHSAHTVKQEDIAVTGKLSSKELQEQAEKEMYSLCLLATLMGEDVWSYAKGLPHMFQQGGVFYSIMKKTMGMADGKHCTFPHLPGKTFVYNASEDRLELCVDAAGHFPIGPDVEDLVKEAVSQVRAEATTRSRESSPSHGLLKLGSGGVVKKKSEQLHNVTAFQGKGHSLGTASGNPHLDPRARETSVVRKHNTGTDFSNSSTKTEPSVFTASSSNSELIRIAPGVVTMRDGRQLDPDLVEAQRKKLQEMVSSIQASMDRHLRDQSTEQSPSDLPQRKTEVVSSSAKSGSLQTGLPESFPLTGGTENLNTETTDGCVADALGAAFATRSKAQRGNSVEELEEMDSQDAEMTNTTEPMDHS
modifications: BODIPY, non-site-selective labelling, DOL 0.62, in the TR-FRET binding assay
notes: VCPIP1 full length with the VCPID (aa 589-666) deleted; made from the Strep-VCPIP1 plasmid by PCR; also called VCPID domain truncation
Kd [2]: 67.9 nM

B3: valosin contain protein p97/p47 interacting protein 1 (VCPIP1), wild type (enzyme, UniProt Q96JH7 1-1222, looked up)
chain: MSQPPPPPPPLPPPPPPPEAPQTPSSLASAAASGGLLKRRDRRILSGSCPDPKCQARLFFPASGSVSIECTECGQRHEQQQLLGVEEVTDPDVVLHNLLRNALLGVTGAPKKNTELVKVMGLSNYHCKLLSPILARYGMDKQTGRAKLLRDMNQGELFDCALLGDRAFLIEPEHVNTVGYGKDRSGSLLYLHDTLEDIKRANKSQECLIPVHVDGDGHCLVHAVSRALVGRELFWHALRENLKQHFQQHLARYQALFHDFIDAAEWEDIINECDPLFVPPEGVPLGLRNIHIFGLANVLHRPIILLDSLSGMRSSGDYSATFLPGLIPAEKCTGKDGHLNKPICIAWSSSGRNHYIPLVGIKGAALPKLPMNLLPKAWGVPQDLIKKYIKLEEDGGCVIGGDRSLQDKYLLRLVAAMEEVFMDKHGIHPSLVADVHQYFYRRTGVIGVQPEEVTAAAKKAVMDNRLHKCLLCGALSELHVPPEWLAPGGKLYNLAKSTHGQLRTDKNYSFPLNNLVCSYDSVKDVLVPDYGMSNLTACNWCHGTSVRKVRGDGSIVYLDGDRTNSRSTGGKCGCGFKHFWDGKEYDNLPEAFPITLEWGGRVVRETVYWFQYESDSSLNSNVYDVAMKLVTKHFPGEFGSEILVQKVVHTILHQTAKKNPDDYTPVNIDGAHAQRVGDVQGQESESQLPTKIILTGQKTKTLHKEELNMSKTERTIQQNITEQASVMQKRKTEKLKQEQKGQPRTVSPSTIRDGPSSAPATPTKAPYSPTTSKEKKIRITTNDGRQSMVTLKSSTTFFELQESIAREFNIPPYLQCIRYGFPPKELMPPQAGMEKEPVPLQHGDRITIEILKSKAEGGQSAAAHSAHTVKQEDIAVTGKLSSKELQEQAEKEMYSLCLLATLMGEDVWSYAKGLPHMFQQGGVFYSIMKKTMGMADGKHCTFPHLPGKTFVYNASEDRLELCVDAAGHFPIGPDVEDLVKEAVSQVRAEATTRSRESSPSHGLLKLGSGGVVKKKSEQLHNVTAFQGKGHSLGTASGNPHLDPRARETSVVRKHNTGTDFSNSSTKTEPSVFTASSSNSELIRIAPGVVTMRDGRQLDPDLVEAQRKKLQEMVSSIQASMDRHLRDQSTEQSPSDLPQRKTEVVSSSAKSGSLQTGLPESFPLTGGTENLNTETTDGCVADALGAAFATRSKAQRGNSVEELEEMDSQDAEMTNTTEPMDHS
modifications: BODIPY, non-site-selective labelling, DOL 0.23, as the labelled partner of the TR-FRET assays; unlabelled in cryo-EM, as competitor in the displacement assay and in the DUB assay
notes: AlphaFold model AF-Q96JH7-F1-v4 used for model building; One molecule for labelled and unlabelled protein; also called VCPIP1^WT; VCIP135; source: co-expressed with VCP for cryo-EM data set 1 (ion exchange omitted)
Kd [2]: 79.5 nM
Kd [3]: 68.3 nM
IC50 [1]: 74.5 nM
Kd [4]: 67.6 nM
Kd [5]: 63.9 nM
Kd [6]: 16.5 nM
Kd [7]: 16.1 nM
